Assay: soluble fraction after stress (log2 fold change); higher = more stays soluble; pooled small domains, quantitative proteomics
Conditions: stress: 50 degC
Method in brief: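 The measure of aggregation propensity here is the base-two logarithm of the fold change in the soluble amount of each protein after stress. A higher value means more of that protein stays in solution. Stress was applied at 50°C to pooled libraries of small protein domains, read out by high-throughput quantitative proteomics.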

First: HMNVRRSRTHEKVTTYQGYDIFINKEPNQRGMFTSAPMRGDNEYSNLRGEGKSKQDAVNMTKEKIDEIAA
Second: HMQIKEVDYGTFISMTEDGEIGRVEIQQQENTILFTDEDETAVYKTAMVEDDQLTQRLYDAGISFYGEE
The “soluble fraction (log2)” value of the first is higher: 0.403 for the first, -0.0136 for the second.

“HMFKINNIIVSGLSEKSNLQTSEEIKNILFENIFFIKKDVLFKILEKNNLINSFEIKKIYPDTIEVKIKKT” and “HMHEGNWTLPNPMPIGTTLTLPEHSRLYISNLAGQRVFETSATSVEIPLLPKGTYLLRLETMNGHTTRKIL” are within 0.2 log units of each other in “soluble fraction (log2)” value: 0.153 for the first, -0.0423 for the second.

First: HMEVVRVEPGATVRDLGEALGVPPTRIIQILMGLGEMKTVTQTLSTEEIELVAEELGRRVEV
Second: HMNISRESLIGQILATLNKNPEEGFNYKQIAKRLNITDSPGRQMISDLLRELSKHGSLQEISHGKYKIKV
The “soluble fraction (log2)” value of the first is higher: 0.135 for the first, -0.226 for the second.

Compared with “HMHPSNQELTKVLAQGSELVLAQKYIEASQIFTRVIEIDQTWAEAWNKRATVFYLLQNYEASQKDIDEV”, “HMAPVLTRREHEVLHLLTDGLDNRTIARNLFISEATVKFHLHNIMGKFGVHRRAALVSTALRG” is lower in “soluble fraction (log2)” value: 0.0182 for the first, -2.21 for the second.

Going from “HMTHHGHSIKRIRDMLGIKQETLAAELNMTQQAFSKLEQKEQIEDEMLDKIAKILHVSTEALKT” to “HMKNQIGFKIKNARRKASISQADLSAKLGISSSYLNLIESGKRNVNVDLLLKVSDVLNIELKDLSK”, the “soluble fraction (log2)” value falls from -0.00336 to -0.781.

Compared with “HMEDVRSLTGPEKAAIILLSLGEEHGQGVWRMFDDEEVKEVSQIMANLGTISASVVEKLLVEFVSQMST”, “HMNSSLLGKRIKSLREDHDLTQKELSLMIGLTPKMISFYENNQRTPPLDILLKLAKIFEVSVDYLIGYA” is higher in “soluble fraction (log2)” value: -0.873 for the first, -0.551 for the second.

First: HMRRQRNPEIFDQLVNKFHFTFTQTQQLKQLIKRWHMLFPGKSLKSAIQGYKSAKEILTYINDSLDVVE
Second: HMNDVHELPYSSFIEMVERGHVISVTVKHINIEFESTKNENYRTIAPQAMTPPYLELLLKNKDSVKVTFLP
The “soluble fraction (log2)” value of the first is higher: 0.124 for the first, -1.69 for the second.

Compared with “HMTKIAFPQMLNKYRLQKNLTMEQLAEEVGKTKSTISKWEAGTRSPKIYEIEEIAKYFGVEPQTMMF”, “HMVAPKTEEQQKMFLESIVTKRQAETLIEKYPNIVQDIIDGTDNVDLANLKGIGEHTYNLIKEKVLSNY” is higher in “soluble fraction (log2)” value: -0.453 for the first, 0.279 for the second.

Compared with “HMKVSKNKIVKGMGFHHVALKAVDFDASFKFYTEGLGMKFYTSWGEGNGKIAMLDLGDGGILELFA”, “HMTEKIRLTVDEAGKNQRVDKYISTLLTQFSRSSIKTWIETGNILLDNTRTKPRTLLSPGQVIDIQPRFED” is lower in “soluble fraction (log2)” value: 0.0801 for the first, -0.643 for the second.

Compared with “HMGQDGFIGLEAAKKLVLQKLGLTSAEFIKAELDAEDRKYELELIVDGIEYDFDIDAYSGAFLKQEQETV”, “HMKLSIGGTIEKLRRNKGLSHQQLANALGVTPDTVEKWEINAAYPDITLLSPIARLLGTTLDALLMF” is lower in “soluble fraction (log2)” value: -0.215 for the first, -0.649 for the second.

“HMVLVLPGEMIHVQVIDEGKEMGQGVGYLDDGTMVVVENGLRHIGRAIDVQVTKVLQTNAGRMIFGQPIL” and “HMDEYFNPETVVHYLRELFDTYRENGGNPFEWFHSTFESVNLNPQNYRKDLITTIEKALIEWIEIFEKQ” are within 0.2 log units of each other in “soluble fraction (log2)” value: -0.137 for the first, -0.0143 for the second.

First: HMIIIMKPNASEEAVRKVTHIIESKGLQVHLSKGSQVTIVGVVGDKTRLQGSNIEISEGVDKVVAVT
Second: HMVMNYKKIGKKIADRRILLGITQEELAEKVDSSANYISNIETGIKSGSLIFYIKVANELKLSLDFLFSDE
The “soluble fraction (log2)” value of the first is higher: -0.0139 for the first, -0.893 for the second.

“HMNIYFNIEDAVANAVVENGKMSAAIYEKNVDTGEVAKLAEVSMPVMGGNINITKTLLTKALISQLP” and “HMVAVSQEEATKMALERVSGASAQDIRIQLEFDDGIQKYEGDIIYNGREYEFEIDANTGTFLEWSEERA” are within 0.2 log units of each other in “soluble fraction (log2)” value: -0.384 for the first, -0.489 for the second.

First: HMKTGIGIVEANGGLRLRSQASTSSDVLSTAHNGDNVVVIRQVGNWYLVNYNLKIGYMHSDYITFKE
Second: HMTLTEQQITDNYKELRKIINDTFSGLRLDKLNHMYDDLEDRMVVAPASSVEHYHNSKVGGYVEHILHVI
The “soluble fraction (log2)” value of the first is lower: -4.82 for the first, -0.187 for the second.

Compared with “HMWKSEAGKKIIESLAQKYNKSNAQIILRWHIQMGYIVIPGARSENHIKENINIFDFKLTNEEINNILKLN”, “HMALTLDEARTQGRVGETFYGYLVALKTDAETEKLVNDINAERKASYQQLAKQNNVSVDDIAKLAGQKLV” is higher in “soluble fraction (log2)” value: -0.345 for the first, 0.0405 for the second.

Compared with “HMTTGREGLIGAVGTVRQAIAPEGYVFVEGELWRAKSPAGPLEPGTTVRVIAIDGLTLTVMPAE”, “HMVVGYRYVTNVANAVNFRQKPSASSTIITTIPYGTRIGYVEDANSEYARVKYDNMYGYVAKFYLSNYSPP” is lower in “soluble fraction (log2)” value: -0.348 for the first, -3.27 for the second.

“HMATVHVDGIQYDFSSPEQAKEFAYKWAKKHNLTWEVHGETIHIK” and “HMPEVTMSYSARNQVVSFSKATQYEIVDEFGTVVLRGVGNQATLRYLSRGDYFVNFGAGTEVLKK” are within 0.2 log units of each other in “soluble fraction (log2)” value: -0.0845 for the first, 0.000609 for the second.

Compared with “HMNTKDRIKQLAAQRKITIAELERKLHIANGTIGKWDKQNPSIEPLKKLADYFGVTTDYLLGRT”, “HMDIEHREMKLQKLVITADSPLVGKTLKESNVRQRYNFMVVGVEEGQKNLTMINPNRRFEVGDIVWVVGEE” is lower in “soluble fraction (log2)” value: 0.162 for the first, -0.0892 for the second.

First: HMTEISGIEKFLASGAINGIGPAMAKKIVAEFGEKTLEIIAKSPNELLKVPGIGKKTAEKISTSYLEQ
Second: HMDLMQRVIIVRPVMQGDYLTRAHLGLQTLSRNGGGGFTDIDDLVGRRAKKSLRAGLVVHNRHL
The “soluble fraction (log2)” value of the first is higher: -0.0669 for the first, -0.694 for the second.

First: HMSGSGYAYVDKYGYSHVVKDYDTAKNYASDGNVYNYSGSHKGGYAYDADNYRVPLDLPGSKPYG
Second: HMSKKMLASIFDTISGIGKKRLKKIWDNYTSLNELKDDSLENIYAKTQIPINLITKIKEKLE
The “soluble fraction (log2)” value of the first is higher: -0.0115 for the first, -0.37 for the second.

Compared with “HMAIVNVEVPSLVGKTEQEARNLLTEAGLKVNVVNDEDESKNDGVVLRQSKDAGTEVQEGTTITITVNKVS”, “HMIEYILDYLANRGVYAASQGEQQQMEDGIARYLQENGLEDGNTGAYYQKYVSNHLQQISASDLKAYFLN” is lower in “soluble fraction (log2)” value: -0.218 for the first, -0.529 for the second.

First: HMGDITIPDLQGMSFDQAREKLKALGLSIGKISYTSDTSKDDGVVISQGLQAGGKASKGATVDITINET
Second: HMDGIGLRVRMIREGVGLTQKQLAEHLGMQRTALVQVEAGSRKLSASELIGVARFFNITVEQFLDPEK
The “soluble fraction (log2)” value of the first is higher: 0.0588 for the first, -3.37 for the second.

First: HMGLDQNTLDRVDDINDTLATGIEIGPETRGTIEELNETLANGLKAGFDEETLARVDELLRVVEDGLK
Second: HMAIGERIRFLRTLRRMTQKELGLAAGFPEKNASIRMAQYENGTRTPKAELTAVLAEILKVSPQALTV
The “soluble fraction (log2)” value of the first is higher: 0.0149 for the first, -1.2 for the second.

Going from “HMKIAEALNLRGDADSYERQEAIWLLEHIVGMSALELKYRGEQDLTEDQLQQYRSGLQRLEQGEPLAYVIG” to “HMATEPLQPRVEVLGSTLATTNGARIVGVYDMSGREVSATQLSKGVYIVKVTNGSVTATQKVFI”, the “soluble fraction (log2)” value rises from -0.396 to 0.112.

Going from “HMDAGIVVPDTYNKPLAEAVASLEGEGFRTEKKEGYSDTVAKGNVMSQNPEAGTNAERGSTVTIVISQGPQ” to “HMIVEIVPSALHGERVDRIVAFILDVSRSVASGLVERGAVHVDGSVETSGKVRLVEGQEVSVDPSQVPG”, the “soluble fraction (log2)” value falls from 0.0495 to -0.46.

Compared with “HMDSVVPNVVGMTAEKANKALTDAGLNVKITGATIGSGAVVHSQSIPAGTVTSKGTVVSIEMRFAAAEGD”, “HMDASFTYSLETHPAGVLVRVDGLEYETPFSILLPQGVHRLEVAGEERFFYLSETTHQFLEID” is lower in “soluble fraction (log2)” value: -0.135 for the first, -0.901 for the second.

First: HMARYSMLEEQLLQLINKHGTMSTPKLVEATGAPRSTVTYQLRKLLESGTIERTQPARSPKQSYRIKS
Second: HMSVSVEEDADGRVWVYYQDQKMDITDLFDENGVYGFNLEKGDRTVYVEVTKNADGTYSFTQTD
The “soluble fraction (log2)” value of the first is lower: -0.238 for the first, -0.0127 for the second.

Going from “HMGGSIDITTAPPGAKIYLDADYYGKTPKRLENISAGTYRLHLLHPEKGEVYRSVTLNEKNGTLKIDENLN” to “HMSLANTSVKEMLNDLVKNEEPSKPLSDEALVKIFKEKGVKIARRTVAKYRAELNILPSHLRRT”, the “soluble fraction (log2)” value falls from 0.124 to -0.749.

“HMGMTRPLFVTDPGLVRIGLVSPIFEKLGSGKLSPQLFDQVKEDPPEQTVFDGVEFARETGIDGVIGFG” and “HMNGDYFEYRYAVNGSRSTPPSLSKTSRNPSGWSTTVPTVGNLQYLWFTVAKINGETNSLIQNWSTPARQT” are within 0.2 log units of each other in “soluble fraction (log2)” value: -0.124 for the first, -0.13 for the second.

Compared with “HMVEVPEQLRDLLERSIEDLAELSVRSRNSLQKENIQTLGDLVQRTEEEMLGIENFGKKSLTEIAAFL”, “HMQPPKIISTVEPYREVVREYLKQGVEMTAIWQRLRENYQYTGSYSSVRRFVAQLEPRQPEA” is lower in “soluble fraction (log2)” value: -0.101 for the first, -1.01 for the second.

Going from “HMNYNEKGEYTRTLTSGSETAVMTYRNFGETLDVALFKNGVQTDSLRLIKSEPGVLYRQSNGQFEKI” to “HMGKTIIQLATDYLIKNMQPKSLHDIESYVLTRKKIKKSSIGAILLSKPNIFGRTEDGLFGLRIWNNFQYT”, the “soluble fraction (log2)” value falls from 0.0586 to -0.738.

“HMNPNYIKKLREKNQLTQEYLAAQIGVSRPTYAQIEQGQRGLTVTEAKKMADIFSLALDDFLAEKN” and “HMDPSKLVEVQEPVSMKALSEGLGIKVTELIATFAFKLKIGGKNINSMLSNDEVELVALDLERNIKVV” are within 0.2 log units of each other in “soluble fraction (log2)” value: 0.0013 for the first, 0.164 for the second.

“HMVDKDFKPLYASLERLDSTSIIEILDSNRIDYRIDQRSGALLVDADQIHQARLSLASAGMPA” and “HMAPRQDIAYYTVKPGDTVLAIAEKFGLQPETLMWSNSIIEQNPDRLSIGDELRILPVDGVLHVVK” are within 0.2 log units of each other in “soluble fraction (log2)” value: -0.116 for the first, 0.0612 for the second.

“HMPMDYFELFNIPRNANRETIKKILDQEYEKYRARVVSPVLEIRHEAELMLVEISKAKQVLLG” and “HMNASVIADLFRQTGASVMIHGHTHRPDIHALEANGDAAFRAVLGAWHTEGSMIRVTQDDVTLIAFP” are within 0.2 log units of each other in “soluble fraction (log2)” value: 0.111 for the first, 0.0376 for the second.

“HMDEVVVVERGGVQITMSEIDAKIMELPVDVRPSYLDSPERLQNFVSNLLLEKQAAQLKSQY” and “HMEEITLIAEDEGLRLDTWLTDKLKDYSRSYIQKLMEDELVLVNGKARKANYRIKTGDEIHVSIPEPE” are within 0.2 log units of each other in “soluble fraction (log2)” value: -0.153 for the first, -0.0342 for the second.

“HMPPALTELLSVRTNASGTIDYLLPDRSAGLRVENGSKYSGMVPDSIYRLVAIYEIKDAKEPSAYIYTI” and “HMRILGIDPGTRITGYGIIDIEGNRLRHVDNGIIKTRSSDALPLRLKVIYDGLTAVLKQYSPQAV” are within 0.2 log units of each other in “soluble fraction (log2)” value: -0.00921 for the first, 0.0465 for the second.

Going from “HMNYGDVIEGQIMHVDRDELLVDIGSKSEGIIPAREFSTLTDEERAALSVGDHVLVFVVQAENQEGQAV” to “HMSGTYIVTVQANTLDIYKSMTSNDTIGKANKGDVFQILEDMGGGYAKVSYNDVEGYISIKDGDTSIDEM”, the “soluble fraction (log2)” value falls from 0.0712 to -0.23.

In the case of “HMEPDDLTVIKGIGPVAAKDLNEQGIITFAQLAKLSDKDVAKIDEHMPFSADQIKDWREQAKELAK”, the “soluble fraction (log2)” value is reported as 0.263.
